Here are results for 14 molecules from patent US20150045540A1 (published 2015).

B1: HC 5/SLC 9 (antibody)
chain 1: GQGTLVTVSSASTKGQPVLHQPPAMSSALGTTIRLTCTLRNDHDIGVYSVYWYQQRPGHPPRFLLRYFSQSDKSQGPQVPPRFSGSKDVARNRGYLSISELQPEDEAMYYCAMGARSRCWPRGFQSKHNSVTHVFGSGTQLTVLSQPKATPSVTLFPPSSEELQANKATLVCLMNDFYPGILTVTWKADGTPITQGVEMTTPSKQSNNKYAASSYLSLTPEQWRSRRSYSCQVMHEGSTVEKTVAPAECS
chain 2: MSWAPVLLMLFVYCTGCGPQPVLHQPPAMSSALGTTIRLTCTLRNDHDIGVYSVYWYQQRPGHPPRFLLRYFSQSDKSQGPQVPPRFSGSKDVARNRGYLSISVTHVFGSGTQLTVLSQPKATPSVQVQLVQ
B2: HC 5/SLC 3 (antibody)
chain 1: B1 chain 1
chain 2: MSWAPVLLMLFVYCTGCGPQPVLHQPPAMSSALGTTIRLTCTLRNDHDIGVYSVYWYQQRPGHPPRFLLRYFSQSDKSQGPQVPPRFSGSKDVARNRGYLSISVTHVFGSGTQLTVLSQPQVQLVQ
B3: HC 6/SLC 9 (antibody)
chain 1: GQGTLVTVSSASTKGPQPVLHQPPAMSSALGTTIRLTCTLRNDHDIGVYSVYWYQQRPGHPPRFLLRYFSQSDKSQGPQVPPRFSGSKDVARNRGYLSISELQPEDEAMYYCAMGARSRCWPRGFQSKHNSVTHVFGSGTQLTVLSQPKATPSVTLFPPSSEELQANKATLVCLMNDFYPGILTVTWKADGTPITQGVEMTTPSKQSNNKYAASSYLSLTPEQWRSRRSYSCQVMHEGSTVEKTVAPAECS
chain 2: B1 chain 2
B4: HC 5/SLC 5 (antibody)
chain 1: B1 chain 1
chain 2: MSWAPVLLMLFVYCTGCGPQPVLHQPPAMSSALGTTIRLTCTLRNDHDIGVYSVYWYQQRPGHPPRFLLRYFSQSDKSQGPQVPPRFSGSKDVARNRGYLSISVTHVFGSGTQLTVLSQPKAQVQLVQ
B5: HC 5/SLC 4 (antibody)
chain 1: B1 chain 1
chain 2: MSWAPVLLMLFVYCTGCGPQPVLHQPPAMSSALGTTIRLTCTLRNDHDIGVYSVYWYQQRPGHPPRFLLRYFSQSDKSQGPQVPPRFSGSKDVARNRGYLSISVTHVFGSGTQLTVLSQPKQVQLVQ
B6: HC 4/SLC 5 (antibody)
chain 1: GQGTLVTVSSASTKQPVLHQPPAMSSALGTTIRLTCTLRNDHDIGVYSVYWYQQRPGHPPRFLLRYFSQSDKSQGPQVPPRFSGSKDVARNRGYLSISELQPEDEAMYYCAMGARSRCWPRGFQSKHNSVTHVFGSGTQLTVLSQPKATPSVTLFPPSSEELQANKATLVCLMNDFYPGILTVTWKADGTPITQGVEMTTPSKQSNNKYAASSYLSLTPEQWRSRRSYSCQVMHEGSTVEKTVAPAECS
chain 2: B4 chain 2
B7: HC 8/SLC 5 (antibody)
chain 1: GQGTLVTVSSASTKGPSVQPVLHQPPAMSSALGTTIRLTCTLRNDHDIGVYSVYWYQQRPGHPPRFLLRYFSQSDKSQGPQVPPRFSGSKDVARNRGYLSISELQPEDEAMYYCAMGARSRCWPRGFQSKHNSVTHVFGSGTQLTVLSQPKATPSVTLFPPSSEELQANKATLVCLMNDFYPGILTVTWKADGTPITQGVEMTTPSKQSNNKYAASSYLSLTPEQWRSRRSYSCQVMHEGSTVEKTVAPAECS
chain 2: B4 chain 2
B8: HC 10/SLC 3 (antibody)
chain 1: GQGTLVTVSSASTKGPSVFPQPVLHQPPAMSSALGTTIRLTCTLRNDHDIGVYSVYWYQQRPGHPPRFLLRYFSQSDKSQGPQVPPRFSGSKDVARNRGYLSISELQPEDEAMYYCAMGARSRCWPRGFQSKHNSVTHVFGSGTQLTVLSQPKATPSVTLFPPSSEELQANKATLVCLMNDFYPGILTVTWKADGTPITQGVEMTTPSKQSNNKYAASSYLSLTPEQWRSRRSYSCQVMHEGSTVEKTVAPAECS
chain 2: B2 chain 2
B9: HC 9/SLC 15 (antibody)
chain 1: GQGTLVTVSSASTKGPSVFQPVLHQPPAMSSALGTTIRLTCTLRNDHDIGVYSVYWYQQRPGHPPRFLLRYFSQSDKSQGPQVPPRFSGSKDVARNRGYLSISELQPEDEAMYYCAMGARSRCWPRGFQSKHNSVTHVFGSGTQLTVLSQPKATPSVTLFPPSSEELQANKATLVCLMNDFYPGILTVTWKADGTPITQGVEMTTPSKQSNNKYAASSYLSLTPEQWRSRRSYSCQVMHEGSTVEKTVAPAECS
chain 2: MSWAPVLLMLFVYCTGCGPQPVLHQPPAMSSALGTTIRLTCTLRNDHDIGVYSVYWYQQRPGHPPRFLLRYFSQSDKSQGPQVPPRFSGSKDVARNRGYLSISVTHVFGSGTQLTVLSQPKATPSVTGGGGSQVQLVQ
B10: HC 6/SLC 2 (antibody)
chain 1: B3 chain 1
chain 2: MSWAPVLLMLFVYCTGCGPQPVLHQPPAMSSALGTTIRLTCTLRNDHDIGVYSVYWYQQRPGHPPRFLLRYFSQSDKSQGPQVPPRFSGSKDVARNRGYLSISVTHVFGSGTQLTVLSQQVQLVQ
B11: HC 9/SLC 2 (antibody)
chain 1: B9 chain 1
chain 2: B10 chain 2
B12: HC 7/SLC 8 (antibody)
chain 1: GQGTLVTVSSASTKGPSQPVLHQPPAMSSALGTTIRLTCTLRNDHDIGVYSVYWYQQRPGHPPRFLLRYFSQSDKSQGPQVPPRFSGSKDVARNRGYLSISELQPEDEAMYYCAMGARSRCWPRGFQSKHNSVTHVFGSGTQLTVLSQPKATPSVTLFPPSSEELQANKATLVCLMNDFYPGILTVTWKADGTPITQGVEMTTPSKQSNNKYAASSYLSLTPEQWRSRRSYSCQVMHEGSTVEKTVAPAECS
chain 2: MSWAPVLLMLFVYCTGCGPQPVLHQPPAMSSALGTTIRLTCTLRNDHDIGVYSVYWYQQRPGHPPRFLLRYFSQSDKSQGPQVPPRFSGSKDVARNRGYLSISVTHVFGSGTQLTVLSQPKATPSQVQLVQ
B13: HC 7/SLC 3 (antibody)
chain 1: B12 chain 1
chain 2: B2 chain 2
B14: HC 7/SLC 7 (antibody)
chain 1: B12 chain 1
chain 2: MSWAPVLLMLFVYCTGCGPQPVLHQPPAMSSALGTTIRLTCTLRNDHDIGVYSVYWYQQRPGHPPRFLLRYFSQSDKSQGPQVPPRFSGSKDVARNRGYLSISVTHVFGSGTQLTVLSQPKATPQVQLVQ

The target in the first assay is T1, Placenta Growth Factor (PlGF), human (human, UniProt P49763 21-149).
T1 chain: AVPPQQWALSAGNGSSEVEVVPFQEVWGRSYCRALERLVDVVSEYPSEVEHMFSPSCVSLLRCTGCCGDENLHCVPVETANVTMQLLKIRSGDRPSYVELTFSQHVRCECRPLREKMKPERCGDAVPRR
As to the kind of experiment: ELISA. (ELISA stands for enzyme-linked immunosorbent assay.)
Broadly, the EC50 is the concentration that produces a half-maximal response. Read a low EC50 as an effect from little substance. Regarding B1, the EC50 is 0.066 nM.

Molecule B2 returned an EC50 of 0.181 nM.

For the molecule B3, it took 0.053 nM to reach a half-maximal effect (EC50).

On to B4, for which the EC50 stood at 0.256 nM.

B5 showed a 50% effective concentration (EC50) of 0.207 nM.

As for B6, the EC50 amounted to 0.282 nM.

B7 had an EC50 of 0.289 nM.

With B8, the EC50 came out at 0.121 nM.

B9 came in with an EC50 of 0.047 nM.

The molecule B10 came in with an EC50 of 0.229 nM.

As to B11, the EC50 is 0.211 nM.

Take B12: a half-maximal response (EC50) required 0.095 nM.

Molecule B13 came in with an EC50 of 0.182 nM.

Molecule B14 came in with an EC50 of 0.106 nM.

In a further assay the target is Hepatocyte Growth Factor (HGF), human (human, UniProt P14210 32-728). Description: ELISA.
Chain of Hepatocyte Growth Factor (HGF), human (P14210 32-728): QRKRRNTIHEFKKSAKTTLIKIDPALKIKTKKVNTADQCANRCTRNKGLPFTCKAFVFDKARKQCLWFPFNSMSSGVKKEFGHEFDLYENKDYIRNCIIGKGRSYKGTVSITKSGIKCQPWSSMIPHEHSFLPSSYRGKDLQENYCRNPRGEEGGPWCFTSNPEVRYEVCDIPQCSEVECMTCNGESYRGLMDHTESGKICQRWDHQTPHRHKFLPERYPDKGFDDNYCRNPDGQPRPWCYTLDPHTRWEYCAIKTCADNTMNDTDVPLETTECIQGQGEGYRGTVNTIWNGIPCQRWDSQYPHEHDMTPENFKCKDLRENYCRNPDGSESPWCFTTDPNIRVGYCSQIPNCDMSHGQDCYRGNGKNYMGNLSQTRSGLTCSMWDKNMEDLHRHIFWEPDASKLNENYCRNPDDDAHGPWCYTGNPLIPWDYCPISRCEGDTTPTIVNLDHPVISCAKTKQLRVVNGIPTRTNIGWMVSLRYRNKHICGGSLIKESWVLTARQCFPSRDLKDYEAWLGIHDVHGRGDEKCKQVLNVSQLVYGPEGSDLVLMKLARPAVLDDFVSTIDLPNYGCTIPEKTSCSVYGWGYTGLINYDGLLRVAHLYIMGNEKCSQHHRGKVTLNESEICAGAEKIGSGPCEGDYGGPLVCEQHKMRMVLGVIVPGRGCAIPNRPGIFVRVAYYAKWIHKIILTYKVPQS
In the case of B1, the EC50 is 0.052 nM.

B2 gave a 50% effective concentration (EC50) of 0.064 nM.

Regarding B3, the midpoint of the response, the EC50, lay at 0.047 nM.

The molecule B4 came in with an EC50 of 0.063 nM.

Molecule B5 had an EC50 of 0.065 nM.

With B6, the EC50 was 0.059 nM.

Molecule B7 returned an EC50 of 0.063 nM.

Regarding B8, the EC50 is 0.074 nM.

In the case of B9, the EC50 worked out at 0.049 nM.

In the case of B10, the EC50 is 0.06 nM.

As to B11, the EC50 stood at 0.062 nM.

With B12, it took 0.056 nM to reach a half-maximal effect (EC50).

Take B13: the EC50 was determined as 0.067 nM.

In the case of B14, a half-maximal response (EC50) required 0.056 nM.
